Assay results from patent publication US20140142049A1, “PEGYLATED APELIN AND USES THEREOF” (priority 2011, published 2014).

T1: APJ receptor (Homo sapiens, UniProt P35414)
T1 construct: purchased Perkin Elmer, Waltham, Mass; host or cells: transfected CHO cells (membrane fraction)
T1 sequence (P35414 1-380): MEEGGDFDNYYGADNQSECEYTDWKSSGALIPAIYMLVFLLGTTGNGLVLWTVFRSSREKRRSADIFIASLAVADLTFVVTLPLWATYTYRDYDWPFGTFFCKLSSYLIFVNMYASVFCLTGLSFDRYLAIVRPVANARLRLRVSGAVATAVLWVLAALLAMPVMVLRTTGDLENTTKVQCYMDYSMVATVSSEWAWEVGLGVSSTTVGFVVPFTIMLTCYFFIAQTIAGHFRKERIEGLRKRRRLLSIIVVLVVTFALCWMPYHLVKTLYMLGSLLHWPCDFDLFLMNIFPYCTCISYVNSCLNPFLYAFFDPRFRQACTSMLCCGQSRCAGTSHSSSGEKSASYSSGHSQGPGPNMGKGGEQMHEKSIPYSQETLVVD

T2: APJ receptor in a membrane fraction from transfected CHO cells (Perkin Elmer) (UniProt P35414 1-380, limits assumed)
T2 construct: whole, on cells; The receptor stood in a membrane fraction of transfected CHO cells, not on whole cells
T2 sequence (looked up): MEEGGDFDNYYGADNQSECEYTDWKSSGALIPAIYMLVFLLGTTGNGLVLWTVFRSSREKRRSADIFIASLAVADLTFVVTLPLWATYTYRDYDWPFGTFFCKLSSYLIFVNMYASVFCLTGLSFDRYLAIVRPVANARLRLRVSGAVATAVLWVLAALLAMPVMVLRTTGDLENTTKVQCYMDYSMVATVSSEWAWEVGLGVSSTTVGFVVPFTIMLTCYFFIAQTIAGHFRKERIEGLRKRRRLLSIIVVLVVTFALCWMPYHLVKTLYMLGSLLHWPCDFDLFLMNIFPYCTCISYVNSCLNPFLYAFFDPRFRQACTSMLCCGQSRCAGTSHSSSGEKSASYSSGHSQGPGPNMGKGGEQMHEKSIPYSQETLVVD


How the values were obtained:
APJ receptor = molecular target: T1, APJ receptor; assay: APJ receptor binding assay (competitive radioligand binding); conditions: negative control
Method: The binding was performed using competition with ^125I-labelled [Glp^65, Nle^75, Tyr^77]-apelin13 probe for binding to the APJ receptor in a membrane fraction from the transfected CHO cells (Perkin Elmer, Waltham, Mass.). Serially diluted peptide was incubated with membrane and probe for 1 hour at room temperature. The mixture was then filtered over a 1.2 um glass fiber type C filterplate (Millipore Corp., Billerica, Mass.), preblocked with 0.5% polyethylenimine. The plate was washed 4 times with 200 ul ice cold binding buffer and then another 4 times with ice cold 50 mM Tris-HCl, pH7.4, dried and counted with scintillation fluid. The data was analyzed with Graphpad Prism 4 (GraphPad Software, Inc, La Jolla, Calif.) using nonlinear regression.

[1] = molecular target: T2, APJ receptor in a membrane fraction …; assay: competitive radioligand binding, 125I-[Glp65, Nle75, Tyr77]-apelin13 probe, APJ membranes from transfected CHO cells
Method: The mixture was then filtered over a 1.2 um glass fiber type C filterplate (Millipore Corp., Billerica, Mass.), preblocked with 0.5% polyethylenimine. The plate was washed 4 times with 200 ul ice cold binding buffer and then another 4 times with ice cold 50 mM Tris-HCl, pH7.4, dried and counted with scintillation fluid. The data was analyzed with Graphpad Prism 4 (GraphPad Software, Inc, La Jolla, Calif.) using nonlinear regression.

Row | Molecule | binding to APJ receptor (in words) (APJ receptor) | binding result [1]
1 | α-MSH: 13 amino acid α-MSH peptide negative control | no binding | 
2 | SYSMEHFRWGKPV (peptide, UniProt P01189 138-150, looked up, also called negative control) [13 amino acid α-MSH peptide] |  | no binding
